Test results from patent US20200332015A1 (NAMAB THERAPEUTICS, published 2020).
Blank lines part the entries; values can stand above or below the binder they belong to.

Assays:
[1] = target: T1, human CD137 expressed on Jurkat cells (human, UniProt Q07011 24-255); experiment: cell-based or functional assay
human serum albumin = target: T2, human serum albumin (human, UniProt P02768 25-609); experiment: SPR T200, SA coupled to chip, pH 5.5
T2 construct: also called human SA; HSA
Procedure: (§1) Affinity of molecules to serum albumin (SA) of the different species was determined by SPR measurements using a Biacore T200 device (GE Healthcare). SA was directly coupled to a CM5 sensor chip (GE Healthcare) using amine coupling chemistry. […] The assay was run in a 1×PBS-Tween buffer at pH 5.5.

mouse serum albumin = target: T3, mouse serum albumin (mouse, UniProt P07724 25-608); experiment: SPR T200, SA coupled to chip, pH 5.5
T3 construct: also called mouse SA; MSA
Procedure: as §1

[2] = target: human PDL1-Fc chimeric protein (human, UniProt Q9NZQ7 19-238, limits assumed); experiment: SPR T200, antigen-Fc captured, molecule as analyte
Procedure: (§2) Affinity to PDL1 of the different species was determined by SPR measurements using a Biacore T200 device (GE Healthcare). An antibody specific for the Fc region of human IgGs was immobilized on a sensor chip (CM5 sensor chip, GE Healthcare) by amine-coupling. For all formats, with the exception of the Fc containing Morrison formats, PDL1-Fc chimeric protein from different species were captured by the immobilized antibody. Three-fold serial dilutions of the molecules specific for PDL1 (0.12-90 nM) were injected into the flow cells for three minutes and dissociation was monitored for 10 minutes. After each injection cycle, surfaces were regenerated with one injection of a 3 M MgCl₂ solution. The apparent dissociation (kd) and association (kₐ) rate constants and the apparent dissociation equilibrium constant (KD) were calculated using one-to-one Langmuir binding model. Affinity to CD137 of the different species was determined using the identical setup as for PDL1 with the exception that CD137-Fc chimeric proteins from different species were captured by the immobilized antibody.

[3] = target: T4, Fc tagged human CD137 (R&D Systems, cat. 838-4B-100) (human, UniProt Q07011 24-186); experiment: SPR T200, antigen-Fc captured, molecule as analyte
T4 construct: also called CD137 Fc chimera; human CD137-Fc chimeric protein
Procedure: as §2

[4] = target: T1, human CD137 expressed on Jurkat cells; experiment: cell-based or functional assay; remark: listed apart in the source
[5] = target: T1, human CD137 expressed on Jurkat cells; experiment: cell-based or functional assay; remark: listed apart in the source
[6] = target: T1, human CD137 expressed on Jurkat cells; experiment: cell-based or functional assay; remark: listed apart in the source
[7] = target: T5, cynomolgus monkey Fc-tagged CD137 (R&D Systems, cat. 9324-4B-100) (cynomolgus monkey, UniProt A9YYE7 24-186); experiment: SPR T200, antigen-Fc captured, molecule as analyte
T5 construct: also called cynomolgus CD137-Fc chimeric protein
T5 sequence (A9YYE7 entry or part of it): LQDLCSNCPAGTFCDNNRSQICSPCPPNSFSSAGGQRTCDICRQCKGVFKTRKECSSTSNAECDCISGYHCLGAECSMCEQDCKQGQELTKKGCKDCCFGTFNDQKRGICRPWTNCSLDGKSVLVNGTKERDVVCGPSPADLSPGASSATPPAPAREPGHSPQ
Procedure: as §2

[8] = target: T6, mouse Fc-tagged mouse CD137 (R&D Systems, cat. 937-4B-050) (mouse, UniProt P20334 24-187); experiment: SPR T200, antigen-Fc captured, molecule as analyte
T6 construct: also called mouse CD137-Fc chimeric protein
T6 sequence (looked up): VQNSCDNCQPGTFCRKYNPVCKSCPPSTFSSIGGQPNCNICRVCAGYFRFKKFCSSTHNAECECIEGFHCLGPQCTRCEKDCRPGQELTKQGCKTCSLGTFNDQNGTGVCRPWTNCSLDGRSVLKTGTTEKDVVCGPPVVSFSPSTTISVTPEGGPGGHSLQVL
Procedure: as §2

[9] = target: T7, recombinant human CD137 extracellular domain (Peprotech, cat. 310-15-1MG) (human, UniProt Q07011 24-186); experiment: SPR T200, Morrison format captured, ECD analyte
T7 construct: also called human CD137 ECD; CD137 ECD
Procedure: as §2
(§3) The Fc containing formats were directly captured by the antibody specific for the Fc region of human IgGs. Two-fold serial dilutions of PDL1 extracellular domain or CD137 extracellular domain ranging from 90 to 0.35 nM were tested for binding to the IgG captured on the biosensor chip. After each injection cycle, surfaces were regenerated with one injection of a 3 M MgCl2 solution.

[10] = target: T8, human PDL1 extracellular domain (human, UniProt Q9NZQ7 19-238); experiment: SPR T200, Morrison format captured, ECD analyte
T8 construct: extracellular domain; Analyte for the Fc containing Morrison formats
Procedure: as §2, §3

- max. activation, HCC827 +IFNg, 24h [1]: 129%
- max. activation, NF-kB reporter gene, CHO-PD-L1, 24h [1]: 152%
- rel. IC50 (urelumab/test), HCC827 +IFNg, 24h [1]: 1.88 ratio
- rel. IC50 (urelumab/test), NF-kB reporter gene, CHO-PD-L1, 24h [1]: 0.97 ratio
- Kd (human serum albumin): 2.9 nM
- koff (human serum albumin): 0.00072 s⁻¹
- kon (human serum albumin): 250000 M⁻¹ s⁻¹
- Kd (mouse serum albumin): 43 nM
- koff (mouse serum albumin): 0.0095 s⁻¹
- kon (mouse serum albumin): 220000 M⁻¹ s⁻¹
- Kd [2]: 0.0037 nM
- koff [2]: 2.3e-05 s⁻¹
- kon [2]: 6.2e+06 M⁻¹ s⁻¹
- Kd [3]: 2.6 nM
- koff [3]: 0.0005 s⁻¹
- kon [3]: 190000 M⁻¹ s⁻¹
B1: PRO1186 (37-20-B03 sc01 / 38-02-A04 sc01 / 23-13-A01 sc03, scDb-scFv) (other)
chain: DIQMTQSPSSLSASVGDRVTITCQASQSIGTYLAWYQQKPGKAPKLLIYRAFILASGVPSRFSGSGSGTDFTLTISSLQPEDFATYYCQSNFYSDSTTIGPNAFGTGTKVTVLGGGGGSQVQLQESGPGLVKPSETLSLTCKVSGFSFSNSYWICWIRQPPGKGLEWIGCTFVGSSDSTYYANWAKGRVTISVDSSKNQFSLKLSSVTAADTAVYYCARHPSDAVYGYANNLWGQGTLVTVSSGGGGSGGGGSGGGGSGGGGSIQMTQSPSSLSASVGDRVTITCQASQSINNVLAWYQQKPGKAPKLLIYRASTLASGVPSRFSGSGSGTDFTLTISSLQPEDFATYYCQSSYGNYGDFGTGTKVTVLGGGGGSQVQLQESGPGLVKPSETLSLTCKVSGFSFNSDYWIYWIRQPPGKGLEWIGSIYGGSSGNTQYASWAQGRVTISVDSSKNQFSLKLSSVTAADTAVYYCARGYVDYGGATDLWGQGTLVTVSSGGGGSGGGGSVVMTQSPSSLSASVGDRVTITCQASQIISSRSAWYQQKPGQPPKLLIYQASKLASGVPSRFSGSGSGTDFTLTISSLQPEDFATYYCQCTYIDSNFGAFGGGTKLTVLGGGGGSGGGGSGGGGSGGGGSEVQLVESGGGLVQPGGSLRLSCAASGFSFSSSYWICWVRQAPGKGLEWVGCVFTGDGTTYYASWAKGRFTISRDNSKNTVYLQMNSLRAEDTATYFCARPVSVYYYGMDLWGQGTLVTVSS
notes: Trispecific scDb-scFv

- EC50 NFkB-luciferase, CHO-PDL1 cells, 6 h, + HSA [4]: 0.112 µg/mL
- Top of curve fit, NFkB-luciferase, CHO-PDL1 cells, 6 h, + HSA [4]: 463
- EC50 NFkB-luciferase, CHO-PDL1 cells, 24 h, + HBA (so in the source) [5]: 0.792 µg/mL
- Top of curve fit, NFkB-luciferase, CHO-PDL1 cells, 24 h, + HBA (so in the source) [5]: 745
- EC50 NFkB-luciferase, HCC827 with IFNy stimulation, +HSA [6]: 0.115 µg/mL
- EC50 NFkB-luciferase, HCC827 without IFNy stimulation, +HSA [6]: 0.0766 µg/mL
- max. activation, HCC827 +IFNg, 24h [1]: 135%
- max. activation, NF-kB reporter gene, CHO-PD-L1, 24h [1]: 663%
- rel. IC50 (urelumab/test), HCC827 +IFNg, 24h [1]: 0.46 ratio
- rel. IC50 (urelumab/test), HCC827 -IFNg, 24h [1]: 0.62 ratio
- rel. IC50 (urelumab/test), NF-kB reporter gene, CHO-PD-L1, 24h [1]: 0.1 ratio
- Kd (human serum albumin): 2.8 nM
- koff (human serum albumin): 0.00067 s⁻¹
- kon (human serum albumin): 240000 M⁻¹ s⁻¹
- Kd (mouse serum albumin): 66 nM
- koff (mouse serum albumin): 0.0085 s⁻¹
- kon (mouse serum albumin): 130000 M⁻¹ s⁻¹
- Kd [2]: 0.11 nM
- koff [2]: 0.00017 s⁻¹
- kon [2]: 1.6e+06 M⁻¹ s⁻¹
- Kd [3]: 5.1 nM
- koff [3]: 0.0007 s⁻¹
- kon [3]: 140000 M⁻¹ s⁻¹
- Kd [7]: 4.8 nM
- koff [7]: 0.00079 s⁻¹
- kon [7]: 160000 M⁻¹ s⁻¹
- Kd [8]: 1200 nM
- koff [8]: 0.085 s⁻¹
- kon [8]: 69000 M⁻¹ s⁻¹
B2: PRO1057 (38_02_A04 sc01 scDb-i/33-03-G02 sc01 scDb-o/mxr HSA (23-13-A01-sc03, sk17sh4)) (other)
chain: DIQMTQSPSSLSASVGDRVTITCQASQSINDYLAWYQQKPGKAPKLLIYKASTLASGVPSRFSGSGSGTDFTLTISSLQPEDFATYYCQQGYIITDIDNVFGTGTKVTVLGGGGGSQVQLQESGPGLVKPSETLSLTCKVSGFSFSNSYWICWIRQPPGKGLEWIGCTFVGSSDSTYYANWAKGRVTISVDSSKNQFSLKLSSVTAADTAVYYCARHPSDAVYGYANNLWGQGTLVTVSSGGGGSGGGGSGGGGSGGGGSIQMTQSPSSLSASVGDRVTITCQASQSINNVLAWYQQKPGKAPKLLIYRASTLASGVPSRFSGSGSGTDFTLTISSLQPEDFATYYCQSSYGNYGDFGTGTKVTVLGGGGGSQVQLQESGPGLVKPSETLSLTCKVSGFSFSSGYDMCWIRQPPGKGLEWIGCVVAGSVDITYYASWAKGRVTISVDSSKNQFSLKLSSVTAADTAVYYCARKDAYSDAFNLWGQGTLVTVSSGGGGSGGGGSVVMTQSPSSLSASVGDRVTITCQASQIISSRSAWYQQKPGQPPKLLIYQASKLASGVPSRFSGSGSGTDFTLTISSLQPEDFATYYCQCTYIDSNFGAFGGGTKLTVLGGGGGSGGGGSGGGGSGGGGSEVQLVESGGGLVQPGGSLRLSCAASGFSFSSSYWICWVRQAPGKGLEWVGCVFTGDGTTYYASWAKGRFTISRDNSKNTVYLQMNSLRAEDTATYFCARPVSVYYYGMDLWGQGTLVTVSS
notes: Trispecific scDb-scFv

- max. activation, NF-kB reporter gene, CHO-PD-L1, 24h [1]: 189%
- rel. IC50 (urelumab/test), NF-kB reporter gene, CHO-PD-L1, 24h [1]: 0.09 ratio
- Kd [9]: 2.3 nM
- koff [9]: 0.00042 s⁻¹
- kon [9]: 180000 M⁻¹ s⁻¹
- Kd [10]: 0.056 nM
- koff [10]: 6.5e-05 s⁻¹
- kon [10]: 1.2e+06 M⁻¹ s⁻¹
B3: PRO1059 (33-03-G02 IgG1 LC with 38_02_A04 sc01 scFv, PDL1/CD137(scFv) silent Morrison) (bispecific antibody)
light: DIQMTQSPSSLSASVGDRVTITCQASQSINDYLAWYQQKPGKAPKLLIYKASTLASGVPSRFSGSGSGTDFTLTISSLQPEDFATYYCQQGYIITDIDNVFGTGTKVTVLGTVAAPSVFIFPPSDEQLKSGTASVVCLLNNFYPREAKVQWKVDNALQSGNSQESVTEQDSKDSTYSLSSTLTLSKADYEKHKVYACEVTHQGLSSPVTKSFNRGECGGGGSGGGGSIQMTQSPSSLSASVGDRVTITCQASQSINNVLAWYQQKPGKAPKLLIYRASTLASGVPSRFSGSGSGTDFTLTISSLQPEDFATYYCQSSYGNYGDFGTGTKVTVLGGGGGSGGGGSGGGGSGGGGSQVQLQESGPGLVKPSETLSLTCKVSGFSFSNSYWICWIRQPPGKGLEWIGCTFVGSSDSTYYANWAKGRVTISVDSSKNQFSLKLSSVTAADTAVYYCARHPSDAVYGYANNLWGQGTLVTVSS
heavy: QVQLQESGPGLVKPSETLSLTCKVSGFSFSSGYDMCWIRQPPGKGLEWIGCVVAGSVDITYYASWAKGRVTISVDSSKNQFSLKLSSVTAADTAVYYCARKDAYSDAFNLWGQGTLVTVSSASTKGPSVFPLAPSSKSTSGGTAALGCLVKDYFPEPVTVSWNSGALTSGVHTFPAVLQSSGLYSLSSVVTVPSSSLGTQTYICNVNHKPSNTKVDKRVEPKSCDKTHTCPPCPAPEAAGGPSVFLFPPKPKDTLMISRTPEVTCVVVDVSHEDPEVKFNWYVDGVEVHNAKTKPREEQYNSTYRVVSVLTVLHQDWLNGKEYKCKVSNKALGAPIEKTISKAKGQPREPQVYTLPPSREEMTKNQVSLTCLVKGFYPSDIAVEWESNGQPENNYKTTPPVLDSDGSFFLYSKLTVDKSRWQQGNVFSCSVMHEALHNHYTQKSLSLSPGK
notes: IgG1 with scFv fused to the light chain; also called Morrison-L
